Measured values as given in IntAct's records for PubMed 16885985.

B1: Merlin (Homo sapiens), P35240 (parent)
chain: MAGAIASRMSFSSLKRKQPKTFTVRIVTMDAEMEFNCEMKWKGKDLFDLVCRTLGLRETWFFGLQYTIKDTVAWLKMDKKVLDHDVSKEEPVTFHFLAKFYPENAEEELVQEITQHLFFLQVKKQILDEKIYCPPEASVLLASYAVQAKYGDYDPSVHKRGFLAQEELLPKRVINLYQMTPEMWEERITAWYAEHRGRARDEAEMEYLKIAQDLEMYGVNYFAIRNKKGTELLLGVDALGLHIYDPENRLTPKISFPWNEIRNISYSDKEFTIKPLDKKIDVFKFNSSKLRVNKLILQLCIGNHDLFMRRRKADSLEVQQMKAQAREEKARKQMERQRLAREKQMREEAERTRDELERRLLQMKEEATMANEALMRSEETADLLAEKAQITEEEAKLLAQKAAEAEQEMQRIKATAIRTEEEKRLMEQKVLEAEVLALKMAEESERRAKEADQLKQDLQEAREAERRAKQKLLEIATKPTYPPMNPIPAPLPPDIPSFNLIGDSLSFDFKDTDMKRLSMEIEKEKVEYMEKSKHLQEQLNELKTEIEALKLKERETALDILHNENSDRGGSSKHNTIKKLTLQSAKSRVAFFEEL
partner: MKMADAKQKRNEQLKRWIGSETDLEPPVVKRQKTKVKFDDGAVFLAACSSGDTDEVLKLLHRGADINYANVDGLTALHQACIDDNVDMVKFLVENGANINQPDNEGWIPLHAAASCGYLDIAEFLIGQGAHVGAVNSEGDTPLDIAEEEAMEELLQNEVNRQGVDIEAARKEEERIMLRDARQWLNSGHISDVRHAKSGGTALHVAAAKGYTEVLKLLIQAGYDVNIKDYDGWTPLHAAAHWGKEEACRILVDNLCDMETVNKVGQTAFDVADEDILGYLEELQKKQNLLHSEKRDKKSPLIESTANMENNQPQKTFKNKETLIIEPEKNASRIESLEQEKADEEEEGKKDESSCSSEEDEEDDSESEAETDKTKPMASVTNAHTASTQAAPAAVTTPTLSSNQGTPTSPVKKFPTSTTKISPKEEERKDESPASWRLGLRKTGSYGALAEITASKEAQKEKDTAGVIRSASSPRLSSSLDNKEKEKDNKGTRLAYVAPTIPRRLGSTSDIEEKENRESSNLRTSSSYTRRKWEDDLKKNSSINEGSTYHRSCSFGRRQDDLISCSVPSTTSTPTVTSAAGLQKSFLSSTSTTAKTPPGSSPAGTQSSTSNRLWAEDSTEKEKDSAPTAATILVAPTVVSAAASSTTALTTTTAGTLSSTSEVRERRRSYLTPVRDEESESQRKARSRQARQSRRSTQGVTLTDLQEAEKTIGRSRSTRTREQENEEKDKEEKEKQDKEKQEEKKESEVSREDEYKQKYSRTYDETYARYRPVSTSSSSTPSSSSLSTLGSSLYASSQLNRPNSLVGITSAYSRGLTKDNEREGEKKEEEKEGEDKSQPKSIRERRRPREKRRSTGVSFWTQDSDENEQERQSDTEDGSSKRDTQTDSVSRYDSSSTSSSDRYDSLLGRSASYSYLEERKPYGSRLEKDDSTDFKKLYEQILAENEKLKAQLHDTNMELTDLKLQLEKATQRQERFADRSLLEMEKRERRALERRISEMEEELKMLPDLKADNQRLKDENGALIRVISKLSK

Variants of: B1
Details: with mypt1_rat Ppp1r12a

Variant | effect of a mutation on the interaction
MAGAIASRMSFSSLKRKQPKTFTVRIVTMDAEMEFNCEMKWKGKDLFDLVCRTLGLRETWFFGLQYTIKDTVAWLKMDKKVLDHDVSKEEPVTFHFLAKFYPENAEEELVQEITQHLFFLQVKKQILDEKIYCPPEASVLLASYAVQAKYGDYDPSVHKRGFLAQEELLPKRVINLYQMTPEMWEERITAWYAEHRGRARDEAEMEYLKIAQDLEMYGVNYFAIRNKKGTELLLGVDALGLHIYDPENRLTPKISFPWNEIRNISYSDKEFTIKPLDKKIDVFKFNSSKLRVNKLILQLCIGNHDLFMRRRKADSLEVQQMKAQAREEKARKQMERQRLAREKQMREEAERTRDELERRLLQMKEEATMANEALMRSEETADLLAEKAQITEEEAKLLAQKAAEAEQEMQRIKATAIRTEEEKRLMEQKVLEAEVLALKMAEESERRAKEADQLKQDLQEAREAERRAKQKLLEIATKPTYPPMNPIPAPLPPDIPSFNLIGDSLSFDFKDTDMKRLAMEIEKEKVEYMEKSKHLQEQLNELKTEIEALKLKERETALDILHNENSDRGGSSKHNTIKKLTLQSAKSRVAFFEEL [S518A] | decreasing interaction
